Drawing on PMC4268710, this text covers fold ribosomal association, mitochondria with OM14 over OM14Δ mitochondria for one substance.

The experiment addresses OM14 assembled in the outer membrane of isolated mitochondria (S. cerevisiae (endogenous in yeast)) (UniProt P38325). Briefly: co-sedimentation; 10 μg purified yeast ribosomes with 25 μg highly purified mitochondria (OM14^+ or OM14Δ, from NAC-deleted cells), 5 min at room temperature in MA buffer, 10,000 g; Rpl3 in the pellet normalised to Tom20.
UniProt P38325, sequence (P38325 whole entry): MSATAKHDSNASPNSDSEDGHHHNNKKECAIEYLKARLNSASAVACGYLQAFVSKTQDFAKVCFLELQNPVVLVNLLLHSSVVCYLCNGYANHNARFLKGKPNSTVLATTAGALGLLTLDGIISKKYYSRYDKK

In the case of “yeast cytosolic ribosomes (from UniProt P14126 1-387) (complex)”, the fold ribosomal association, mitochondria with OM14 over OM14Δ mitochondria was > 2 fold.
